Columns and labels:
[1] = target: T1, human GITR (amino acids M1-V241, NCBI Accession #NP_004186.1) expressed on cells (human, UniProt Q9Y5U5 26-241); experiment: cell-based or functional assay
T1 sequence: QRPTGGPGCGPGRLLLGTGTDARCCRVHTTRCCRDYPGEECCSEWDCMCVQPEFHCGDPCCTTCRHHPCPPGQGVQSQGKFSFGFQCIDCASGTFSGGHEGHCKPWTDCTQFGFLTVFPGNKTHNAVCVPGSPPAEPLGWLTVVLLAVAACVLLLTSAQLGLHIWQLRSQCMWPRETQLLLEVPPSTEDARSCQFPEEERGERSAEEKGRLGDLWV

[2] = target: T2, hGITR.mFc (human); experiment: SPR 37C, mAb capture
T2 construct: soluble dimeric construct with mouse Fc; also called dimeric human GITR
T2 chain: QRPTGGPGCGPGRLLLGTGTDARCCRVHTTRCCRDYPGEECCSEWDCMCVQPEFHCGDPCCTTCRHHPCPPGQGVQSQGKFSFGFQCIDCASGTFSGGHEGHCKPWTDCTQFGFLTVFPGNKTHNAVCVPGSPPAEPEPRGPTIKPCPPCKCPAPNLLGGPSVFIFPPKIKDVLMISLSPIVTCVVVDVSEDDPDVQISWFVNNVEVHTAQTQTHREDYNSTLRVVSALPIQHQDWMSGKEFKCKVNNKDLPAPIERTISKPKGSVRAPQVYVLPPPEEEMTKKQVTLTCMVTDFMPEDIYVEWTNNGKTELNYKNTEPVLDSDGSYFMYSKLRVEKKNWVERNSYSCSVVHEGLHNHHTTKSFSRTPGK

[3] = target: T3, hGITR.mmh (human); experiment: SPR 37C, mAb capture
T3 construct: soluble monomeric construct; also called human (h) GITR.mmh; monomeric human GITR
T3 chain: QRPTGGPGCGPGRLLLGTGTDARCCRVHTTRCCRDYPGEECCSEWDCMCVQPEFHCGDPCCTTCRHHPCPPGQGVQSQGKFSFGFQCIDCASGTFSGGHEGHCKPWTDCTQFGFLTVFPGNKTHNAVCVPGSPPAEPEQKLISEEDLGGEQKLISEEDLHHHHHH

[4] = target: T4, mfGITR.mmh (Macaca fasicularis); experiment: SPR 37C, mAb capture
T4 construct: soluble monomeric construct; also called Macaca fasicularis (mf) GITR.mmh; cynomolgus GITR protein
T4 chain: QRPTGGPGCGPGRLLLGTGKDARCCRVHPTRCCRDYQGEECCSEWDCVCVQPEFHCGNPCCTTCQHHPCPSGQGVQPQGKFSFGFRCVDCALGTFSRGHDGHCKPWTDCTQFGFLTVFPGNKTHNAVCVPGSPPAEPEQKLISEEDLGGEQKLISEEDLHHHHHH

[5] = target: T1, human GITR (amino acids M1-V241, NCBI …); experiment: cell-based or functional assay; remark: listed apart in the source
[6] = target: T1, human GITR (amino acids M1-V241, NCBI …); experiment: ECL cell binding, hGITR/HEK293-D9
How it was run: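 Cells blocked with 2% BSA, then antibody dilutions from 1.7 pM to 100 nM added 1 h at RT. Bound antibody detected with SULFO-TAG anti-human kappa antibody, electrochemiluminescence read, RLU fitted by four-parameter logistic; signal at 100 nM on hGITR cells versus parental cells also recorded.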

[7] = target: T1, human GITR (amino acids M1-V241, NCBI …); experiment: cell-based or functional assay; remark: listed apart in the source
[8] = target: T1, human GITR (amino acids M1-V241, NCBI …); experiment: cell-based or functional assay; remark: listed apart in the source

B1: H4H14470P (antibody, human IgG4, V domains shown)
VH: QVQLVESGGGVVQPGRSLRLSCAASGFTVRNYGMHWVRQAPGKGLEWVAVIWYDGSNKYYADSVKGRFTISRDNSKNTLFLQMNSLRAEDTAVYYCARGGELVRGDYYYGMDVWGQGTTVTVSS
VL: DIQMTQSPSSLSASVGDRVTITCRASQGIRNDLGWYQQKPGKAPKRLIYGASSLQSGVPSRFSGSGSGTEFTLTISSLQPEDFATYYCLQHNSYPYTFGQGTKLEIK
notes: human IgG4 (H4H)
% Activation, NF-kB-Luc, non-anchored [1]: 20%
% Blocking, NF-kB-Luc, non-anchored [1]: 80%
EC50, hGITR activation, NF-kB-Luc, non-anchored [1]: 1.2 nM
IC50, blocking of hGITRL stimulation, NF-kB-Luc, non-anchored [1]: 0.9 nM
Kd [2]: 1.15 nM
koff [2]: 0.00104 s⁻¹
kon [2]: 904000 M⁻¹ s⁻¹
t½ [2]: 11.1 min
Kd [3]: 64.7 nM
koff [3]: 0.0143 s⁻¹
kon [3]: 221000 M⁻¹ s⁻¹
t½ [3]: 0.8 min
binding result [4]: no binding
fold activation, T-cell proliferation, 22 nM, non-anchored, donor 1 [5]: 0.7 fold
fold activation, T-cell proliferation, 22 nM, non-anchored, donor 2 [5]: 0.9 fold
fold activation, T-cell proliferation, 22 nM, non-anchored, donor 3 [5]: 1 fold
fold activation, T-cell proliferation, 22 nM, non-anchored, donor 4 [5]: 1.7 fold
fold activation, T-cell proliferation, 22 nM, non-anchored, mean [5]: 1.1 fold
Average Signal (RLU) at 100 nM [6]: 8390 RLU
EC50 [6]: 1.4 nM
fold activation, T-cell proliferation, 33 nM, FcgR anchored, donor 1 [7]: 1.8 fold
fold activation, T-cell proliferation, 33 nM, FcgR anchored, donor 2 [7]: 1 fold
fold activation, T-cell proliferation, 33 nM, FcgR anchored, donor 3 [7]: 1.4 fold
fold activation, T-cell proliferation, 33 nM, FcgR anchored, donor 4 [7]: 1.5 fold
fold activation, T-cell proliferation, 33 nM, FcgR anchored, donor 5 [7]: 2 fold
fold activation, T-cell proliferation, 33 nM, FcgR anchored, mean [7]: 1.5 fold
fold activation, T-cell proliferation, plate-bound Ab 10.6 nM, donor 1 [8]: 0 fold
fold activation, T-cell proliferation, plate-bound Ab 10.6 nM, donor 2 [8]: 3 fold
fold activation, T-cell proliferation, plate-bound Ab 10.6 nM, donor 3 [8]: 3 fold
fold activation, T-cell proliferation, plate-bound Ab 10.6 nM, donor 4 [8]: 4 fold
fold activation, T-cell proliferation, plate-bound Ab 10.6 nM, donor 5 [8]: 3 fold
fold activation, T-cell proliferation, plate-bound Ab 10.6 nM, donor 6 [8]: 6 fold
fold activation, T-cell proliferation, plate-bound Ab 10.6 nM, donor 7 [8]: 4 fold
fold activation, T-cell proliferation, plate-bound Ab 10.6 nM, donor 8 [8]: 1 fold
fold activation, T-cell proliferation, plate-bound Ab 10.6 nM, mean [8]: 3 fold

B2: H4H14532P2 (antibody, human IgG4, V domains shown)
VH: QVQLVESGGGVVQPGRSLRLSCSASGFTLSNFVMHWVRQAPGKGLEWVAVILYDGSNKYYADSVKGRFTISRDNSNNRLYLQMNSLRAEDTALYYCARGESLGSPIYYYYGLDVWGQGTTVTVSS
VL: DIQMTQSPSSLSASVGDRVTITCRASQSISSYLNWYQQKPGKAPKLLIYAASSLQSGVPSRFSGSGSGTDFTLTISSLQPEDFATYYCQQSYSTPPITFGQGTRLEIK
notes: human IgG4 (H4H)
% Activation, NF-kB-Luc, non-anchored [1]: 30%
% Blocking, NF-kB-Luc, non-anchored [1]: 90%
EC50, hGITR activation, NF-kB-Luc, non-anchored [1]: 1.2 nM
IC50, blocking of hGITRL stimulation, NF-kB-Luc, non-anchored [1]: 1 nM
Kd [2]: 0.373 nM
koff [2]: 0.000269 s⁻¹
kon [2]: 720000 M⁻¹ s⁻¹
t½ [2]: 42.9 min
Kd [3]: 18.5 nM
koff [3]: 0.00645 s⁻¹
kon [3]: 348000 M⁻¹ s⁻¹
t½ [3]: 1.8 min
Kd [4]: 24.9 nM
koff [4]: 0.00648 s⁻¹
kon [4]: 260000 M⁻¹ s⁻¹
t½ [4]: 1.8 min
fold activation, T-cell proliferation, 22 nM, non-anchored, donor 1 [5]: 0.7 fold
fold activation, T-cell proliferation, 22 nM, non-anchored, donor 2 [5]: 0.8 fold
fold activation, T-cell proliferation, 22 nM, non-anchored, donor 3 [5]: 1 fold
fold activation, T-cell proliferation, 22 nM, non-anchored, donor 4 [5]: 1.1 fold
fold activation, T-cell proliferation, 22 nM, non-anchored, mean [5]: 0.9 fold
Average Signal (RLU) at 100 nM [6]: 5740 RLU
EC50 [6]: 0.43 nM
fold activation, T-cell proliferation, 33 nM, FcgR anchored, donor 1 [7]: 0.8 fold
fold activation, T-cell proliferation, 33 nM, FcgR anchored, donor 2 [7]: 0.9 fold
fold activation, T-cell proliferation, 33 nM, FcgR anchored, donor 3 [7]: 1 fold
fold activation, T-cell proliferation, 33 nM, FcgR anchored, donor 4 [7]: 1.7 fold
fold activation, T-cell proliferation, 33 nM, FcgR anchored, donor 5 [7]: 2.1 fold
fold activation, T-cell proliferation, 33 nM, FcgR anchored, mean [7]: 1.3 fold
fold activation, T-cell proliferation, plate-bound Ab 10.6 nM, donor 1 [8]: 2 fold
fold activation, T-cell proliferation, plate-bound Ab 10.6 nM, donor 2 [8]: 6 fold
fold activation, T-cell proliferation, plate-bound Ab 10.6 nM, donor 3 [8]: 6 fold
fold activation, T-cell proliferation, plate-bound Ab 10.6 nM, donor 4 [8]: 12 fold
fold activation, T-cell proliferation, plate-bound Ab 10.6 nM, donor 5 [8]: 6 fold
fold activation, T-cell proliferation, plate-bound Ab 10.6 nM, donor 6 [8]: 19 fold
fold activation, T-cell proliferation, plate-bound Ab 10.6 nM, donor 7 [8]: 7 fold
fold activation, T-cell proliferation, plate-bound Ab 10.6 nM, donor 8 [8]: 2 fold
fold activation, T-cell proliferation, plate-bound Ab 10.6 nM, mean [8]: 8 fold

B3: H4H14528P (antibody, human IgG4, V domains shown)
VH: QVQLVESGGGVVQPGRSLRISCAASGFTFNNYGFHWVRQAPGRGLEWVAVIWYSGSNKYYGDSVKGRFTISRDNSKNILYLQMNSLRAEDTAIYYCARFPFSSSWLLDYWGQGTLVTVSS
VL: DIQLTQSPSFLSASVGDRVTFTCWASQGISDYLAWYQQKPGKAPKLLIYAASALQSGVPSRFSGSGSGTEFTLTVSSLQPEDFATYYCQQLNSYPFTFGPGTKVDIK
notes: human IgG4 (H4H)
% Activation, NF-kB-Luc, non-anchored [1]: 30%
% Blocking, NF-kB-Luc, non-anchored [1]: 90%
EC50, hGITR activation, NF-kB-Luc, non-anchored [1]: 1.1 nM
IC50, blocking of hGITRL stimulation, NF-kB-Luc, non-anchored [1]: 3.4 nM
Kd [2]: 1.12 nM
koff [2]: 0.00177 s⁻¹
kon [2]: 1.58e+06 M⁻¹ s⁻¹
t½ [2]: 6.5 min
Kd [3]: 51.3 nM
koff [3]: 0.00523 s⁻¹
kon [3]: 102000 M⁻¹ s⁻¹
t½ [3]: 2.2 min
binding result [4]: no binding
fold activation, T-cell proliferation, 22 nM, non-anchored, donor 1 [5]: 0.6 fold
fold activation, T-cell proliferation, 22 nM, non-anchored, donor 2 [5]: 0.8 fold
fold activation, T-cell proliferation, 22 nM, non-anchored, donor 3 [5]: 0.9 fold
fold activation, T-cell proliferation, 22 nM, non-anchored, donor 4 [5]: 1 fold
fold activation, T-cell proliferation, 22 nM, non-anchored, mean [5]: 0.8 fold
Average Signal (RLU) at 100 nM [6]: 7310 RLU
EC50 [6]: 0.45 nM
fold activation, T-cell proliferation, 33 nM, FcgR anchored, donor 1 [7]: 0.9 fold
fold activation, T-cell proliferation, 33 nM, FcgR anchored, donor 2 [7]: 1.5 fold
fold activation, T-cell proliferation, 33 nM, FcgR anchored, donor 3 [7]: 1.1 fold
fold activation, T-cell proliferation, 33 nM, FcgR anchored, donor 4 [7]: 1.9 fold
fold activation, T-cell proliferation, 33 nM, FcgR anchored, donor 5 [7]: 1.7 fold
fold activation, T-cell proliferation, 33 nM, FcgR anchored, mean [7]: 1.4 fold
fold activation, T-cell proliferation, plate-bound Ab 10.6 nM, donor 1 [8]: 2 fold
fold activation, T-cell proliferation, plate-bound Ab 10.6 nM, donor 2 [8]: 8 fold
fold activation, T-cell proliferation, plate-bound Ab 10.6 nM, donor 3 [8]: 8 fold
fold activation, T-cell proliferation, plate-bound Ab 10.6 nM, donor 4 [8]: 4 fold
fold activation, T-cell proliferation, plate-bound Ab 10.6 nM, donor 5 [8]: 8 fold
fold activation, T-cell proliferation, plate-bound Ab 10.6 nM, donor 6 [8]: 31 fold
fold activation, T-cell proliferation, plate-bound Ab 10.6 nM, donor 7 [8]: 5 fold
fold activation, T-cell proliferation, plate-bound Ab 10.6 nM, donor 8 [8]: 4 fold
fold activation, T-cell proliferation, plate-bound Ab 10.6 nM, mean [8]: 8 fold

From patent US20170355774A1 (Regeneron, published 2017)
